The values that follow are results of earlier work, collected in publication PMC2696053.

The Kd is a measure of binding affinity in units of concentration.

Data set [1] concerns the target Delta-like 1 (Homo sapiens) (UniProt O00548). In words: surface plasmon resonance. In general terms: In SPR one partner is held on a chip, and binding of the other changes the refractive index at the surface.
The target in data set [2] is Delta ECD (Drosophila melanogaster) (UniProt P10041). The experiment in a line: ELISA. In general terms: ELISA stands for enzyme-linked immunosorbent assay.
Chain of UniProt P10041 (P10041 19-596, stated change not applied): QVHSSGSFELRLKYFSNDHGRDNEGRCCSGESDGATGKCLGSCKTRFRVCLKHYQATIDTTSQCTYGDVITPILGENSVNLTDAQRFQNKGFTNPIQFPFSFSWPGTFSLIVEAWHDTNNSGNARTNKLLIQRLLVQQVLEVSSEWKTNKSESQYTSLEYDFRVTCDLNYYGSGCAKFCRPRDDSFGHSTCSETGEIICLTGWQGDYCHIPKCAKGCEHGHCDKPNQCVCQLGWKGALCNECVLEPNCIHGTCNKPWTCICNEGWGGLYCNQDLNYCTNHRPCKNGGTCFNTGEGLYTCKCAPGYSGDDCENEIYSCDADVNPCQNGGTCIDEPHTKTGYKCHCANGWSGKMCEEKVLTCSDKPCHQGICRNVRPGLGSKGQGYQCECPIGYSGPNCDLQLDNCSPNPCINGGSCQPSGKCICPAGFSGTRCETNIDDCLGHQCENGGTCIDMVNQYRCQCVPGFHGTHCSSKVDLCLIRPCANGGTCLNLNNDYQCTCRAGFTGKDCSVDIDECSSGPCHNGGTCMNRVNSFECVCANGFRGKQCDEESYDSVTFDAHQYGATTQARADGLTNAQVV

Chain of UniProt O00548 (O00548 18-545, stated change not applied): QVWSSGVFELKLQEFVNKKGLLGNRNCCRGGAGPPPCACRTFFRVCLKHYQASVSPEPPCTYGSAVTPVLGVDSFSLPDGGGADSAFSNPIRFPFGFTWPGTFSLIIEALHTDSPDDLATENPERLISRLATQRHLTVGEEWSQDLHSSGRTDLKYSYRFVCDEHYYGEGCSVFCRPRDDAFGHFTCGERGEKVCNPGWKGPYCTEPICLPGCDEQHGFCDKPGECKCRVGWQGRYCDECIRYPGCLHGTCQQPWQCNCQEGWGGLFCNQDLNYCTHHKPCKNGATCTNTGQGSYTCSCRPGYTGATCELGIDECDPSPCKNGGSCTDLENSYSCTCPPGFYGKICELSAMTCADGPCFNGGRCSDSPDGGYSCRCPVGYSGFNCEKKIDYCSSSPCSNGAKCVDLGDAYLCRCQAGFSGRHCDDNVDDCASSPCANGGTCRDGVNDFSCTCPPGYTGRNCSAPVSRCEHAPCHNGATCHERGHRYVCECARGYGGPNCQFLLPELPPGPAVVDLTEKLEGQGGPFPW

For “Notch1 EGF-like repeats 11-14 (from UniProt P46531)”, the Kd in data set [1] is 130 µM.

Consider “Notch EGF-like repeats 11-20 (from UniProt P07207)”, for which the Kd in data set [2] was 0.00187 µM.
